Assay results: US20180042874A1, “METHOD FOR TREATING OSTEOPOROSIS” (China Medical University, priority 2016, published 2018)

Experiment: Body weight in ovariectomized osteoporosis rat model
Format: in vivo, Sprague-Dawley (SD) female rats
Description: Inducing osteoporosis animal models and experimental methods: • 1. 6-month old Sprague-Dawley (SD) female rats were purchased; • 2. These rats were divided into 7 groups, of which Group 1 was given pseudo-surgery, Group 2-7 underwent bilateral ovariectomies; • 3. On the 6th day after surgery, 1 mL/kg of vehicle alone was given orally to Group 1, Group 2 daily, Zoledronic Acid and Prolia were administered weekly by injections to Group 3, Group 4, respectively; 1, 3, 10 mg/kg of the compound of formula I was given orally every 3 days to Groups 5-7, respectively; • 4. Body weight and bone density were measured weekly, blood was drawn until the 118th day; • 5. Rats were then sacrificed to obtain kidneys, livers and rat tibia; • 6. Data were consolidated and processed.

Compound	effect on body weight (rat, in vivo)	effect on body weight (ovariectomized rats)
Proliaor: commercially available drug, injected weekly as comparator in ovariectomized rats	increased the body weight	
O=P(O)(O)C(O)(Cn1ccnc1)P(=O)(O)O [Zoledronic acid]		decreased the body weight
